Measured values taken from the RNAGym collection of RNA variant scans (doi:10.7554/elife.90254).

B1: OR4K15 (parent)
chain: GUUAACGGUCAUAGGCCAUGGAAACUAGGAGCACCAUUUCGCUGCCAGUGAAGAAAUGAACAAAGAAAAUCUGGGCCAGGCAGGCAUCAAAAGAAAUAGUCUUGCGCUCAACCAGAAAGUCUGUAAUCAUUUUAAGGGUA

Variants of: B1
Assay: self-cleavage, relative activity (ratio to wild type); higher = more cleavage; in vitro, sequencing; the parent is a self-cleaving ribozyme

In order of falling self-cleavage:
1. GUUAACGGUCAUAGGCCAUGGAAACUCGGAGCACCAUUUCGCUGCCAGUGAAGAAAUGAACAAAGAAAAUCUGGGCCAGGCAGGCAUCAAAAGAAAUAGUCUUGCGCUCAACCAGAAAGUCUGUAAUCAUUUUAUGGGUA [A27C A135U]  2.25
2. GUUAACGGUCAUAGGCCAUGGAAACUGGGAGCACCAUUUCGCUGCCAGUGAAGAAAUGAACAAAGAUAAUCUGGGCCAGGCAGGCAUCAAAAGAAAUAGUCUUGCGCUCAACCAGAAAGUCUGUAAUCAUUUUAAGGGUA [A27G A67U]  2.19
3. GUUAACGGUCAUAGGCCAUGGAAACUGGGAGCACCAUUUCGCUGCCAGUGAAGAAAUGAACAUAGAAAAUCUGGGCCAGGCAGGCAUCAAAAGAAAUAGUCUUGCGCUCAACCAGAAAGUCUGUAAUCAUUUUAAGGGUA [A27G A63U]  1.83
4. GUUAACGGUCAUAGGCCAUGGAAACUGGGUGCACCAUUUCGCUGCCAGUGAAGAAAUGAACAAAGAAAAUCUGGGCCAGGCAGGCAUCAAAAGAAAUAGUCUUGCGCUCAACCAGAAAGUCUGUAAUCAUUUUAAGGGUA [A27G A30U]  1.61
5. GUUAACGGUCAUAGGCCAUGGAAACUGGGAGCACCAUUUCGCUGCCAGUGAAGAAGUGAACAAAGAAAAUCUGGGCCAGGCAGGCAUCAAAAGAAAUAGUCUUGCGCUCAACCAGAAAGUCUGUAAUCAUUUUAAGGGUA [A27G A56G]  1.57
6. GUUAACGGUCAUAGGCCAUGGAAACUGGGAGCACCAUUUCGCUGCCAGUGAAGAGAUGAACAAAGAAAAUCUGGGCCAGGCAGGCAUCAAAAGAAAUAGUCUUGCGCUCAACCAGAAAGUCUGUAAUCAUUUUAAGGGUA [A27G A55G]  1.57
7. GUUAACGGUCAUAGGCCAUGGAAACUGGGAGCACCAUUUCGCUGCCAGUGAAGAAAUGAACGAAGAAAAUCUGGGCCAGGCAGGCAUCAAAAGAAAUAGUCUUGCGCUCAACCAGAAAGUCUGUAAUCAUUUUAAGGGUA [A27G A62G]  1.46
8. GUUAACGGUCAUAGGCCAUGGAAACUGGGAGCACCAUUUCGCUGCCAGUGAGGAAAUGAACAAAGAAAAUCUGGGCCAGGCAGGCAUCAAAAGAAAUAGUCUUGCGCUCAACCAGAAAGUCUGUAAUCAUUUUAAGGGUA [A27G A52G]  1.44
9. GUUAACGGUCAUAGGCCAUGGAAACUGGGAGCACCAUUUCGCUGCCAGUGAAGGAAUGAACAAAGAAAAUCUGGGCCAGGCAGGCAUCAAAAGAAAUAGUCUUGCGCUCAACCAGAAAGUCUGUAAUCAUUUUAAGGGUA [A27G A54G]  1.37
10. GUUAACGGUCAUAGGCCAUGGAAACUGGGAGCCCCAUUUCGCUGCCAGUGAAGAAAUGAACAAAGAAAAUCUGGGCCAGGCAGGCAUCAAAAGAAAUAGUCUUGCGCUCAACCAGAAAGUCUGUAAUCAUUUUAAGGGUA [A27G A33C]  1.32
11. GUUAACGGUCAUAGGCCAUGGAAACUGGGAGCACCAUUUCGCUGCCAGUGAAGAAAUGAACAAAGCAAAUCUGGGCCAGGCAGGCAUCAAAAGAAAUAGUCUUGCGCUCAACCAGAAAGUCUGUAAUCAUUUUAAGGGUA [A27G A66C]  1.24
12. GUUAACGGUCAUAGGCCAUGGAAACUGGGAGCACCAUUUCGCUGCCAGUGAAGAAAUGUACAAAGAAAAUCUGGGCCAGGCAGGCAUCAAAAGAAAUAGUCUUGCGCUCAACCAGAAAGUCUGUAAUCAUUUUAAGGGUA [A27G A59U]  1.24
13. GUUAACGGUCAUAGGCCAUGGAAACUGGGAGCACCAUUUCGCUGCCAGUGAAGAAAUGAACUAAGAAAAUCUGGGCCAGGCAGGCAUCAAAAGAAAUAGUCUUGCGCUCAACCAGAAAGUCUGUAAUCAUUUUAAGGGUA [A27G A62U]  1.15
14. GUUAACGGUCAUAGGCCAUGGAAACUGGGCGCACCAUUUCGCUGCCAGUGAAGAAAUGAACAAAGAAAAUCUGGGCCAGGCAGGCAUCAAAAGAAAUAGUCUUGCGCUCAACCAGAAAGUCUGUAAUCAUUUUAAGGGUA [A27G A30C]  1.14
15. GUUAACGGUCAUAGGCCAUGGAAACUGGGAGCACCAUUUCGCUGCCAGUGAAGAAAUGAACAAAGAAAAUCUGGGCCAGGCAGGCAUCAAAAGAAAUAGUCUUGCGCUCAACCAGAAAGUCUGUAAUCAUUUUAAGGGUA [A27G]  1.1
16. GUUAACGGUCAUAGGCCAUGGAAACUGGGAGCACCAUUUCGCUGCCAGUGAAGAAAUGAACAAAGAAUAUCUGGGCCAGGCAGGCAUCAAAAGAAAUAGUCUUGCGCUCAACCAGAAAGUCUGUAAUCAUUUUAAGGGUA [A27G A68U]  1.1
17. GUUAACGGUCAUAGGCCAUGGAAACUGGGAGCACCAUUUCGCUGCCAGUGAAGAAAUGGACAAAGAAAAUCUGGGCCAGGCAGGCAUCAAAAGAAAUAGUCUUGCGCUCAACCAGAAAGUCUGUAAUCAUUUUAAGGGUA [A27G A59G]  1.03
18. GUUAACGGUCAUAGGCCAUGGAAACUGGGAGCACCUUUUCGCUGCCAGUGAAGAAAUGAACAAAGAAAAUCUGGGCCAGGCAGGCAUCAAAAGAAAUAGUCUUGCGCUCAACCAGAAAGUCUGUAAUCAUUUUAAGGGUA [A27G A36U]  0.85
19. GUUAACGGUCAUAGGCCAUGGAAACUGGGAGCACCAUUUCGCUGCCGGUGAAGAAAUGAACAAAGAAAAUCUGGGCCAGGCAGGCAUCAAAAGAAAUAGUCUUGCGCUCAACCAGAAAGUCUGUAAUCAUUUUAAGGGUA [A27G A47G]  0.68
20. GUUAACGGUCAUAGGCCAUGGAAACUGGGAGCACCAUUUCGCUGCCAGUGAAGAAAUGAACAAAGAAAAUCUGGGCCUGGCAGGCAUCAAAAGAAAUAGUCUUGCGCUCAACCAGAAAGUCUGUAAUCAUUUUAAGGGUA [A27G A78U]  0.34
21. GUUAACGGUCAUAGGCCAUGGAAACUGGGAGCACCAUUUCGCUGCCAGUGAAGAAAUGAACAAAGAAAAUCUGGGCCAGGCCGGCAUCAAAAGAAAUAGUCUUGCGCUCAACCAGAAAGUCUGUAAUCAUUUUAAGGGUA [A27G A82C]  0.1
